Experimental findings from the RNAGym collection of RNA variant scans (doi:10.7554/elife.80360) are described below.

B1: Hairpin Ribozyme (parent)
chain: GUCCUCUUUCACGUGCGCGUGAAAGAGAGAAGUGAACCAGAGAAACACACGUUGUGGUAUAUUACCUGGUA

The series covers variants of B1. In words: self-cleavage, relative activity (ratio to wild type); higher = more cleavage; co-transcriptional.
Consider GUCCUCUUUCACGUGCGCGUGAAAGAGAGCAGUGAACCAGAGAAACACACGUUGUGGUGUAUUACCUGGUA [A30C A59G], for which the self-cleavage came out at 0.0647.

As to GUCCUCUUUCACGUGCGUGUGAAAGAGAGAAGUGAACCAGAGAAACACACGUUGUGGUAUAUUGCCUGGUA [C18U A64G], the self-cleavage was determined as 0.71.

As for GUCCUCUUUCACGUGCGCGUGAAAGAGAGAAGUGAACCAGAGGACCACACGUUGUGGUAUAUUACCUGGUA [A43G A45C], the self-cleavage stood at 0.142.

Turning to GUCCCCUUUCACGUGCGCGUGAAAGAGAGAUGUGAACCAGAGAAACACACGUUGUGGUAUAUUACCUGGUA [U5C A31U], the self-cleavage was 0.0715.

For the variant GUGCUCUUUCACGUGCGCGUGAAAGAGAGAAGUAAACCAGAGAAACACACGUUGUGGUAUAUUACCUGGUA [C3G G34A], the self-cleavage was 0.27.

Regarding GUCCUCUUUCACGUGUGCGUGAAAGAGAGAAGUGAACCAGAUAAACACACGUUGUGGUAUAUUACCUGGUA [C16U G42U], the self-cleavage is 0.34.

GUCCUCUUUCACGUGCGCGUGAAAGACAGAAGUGAACCAGAGAAACACACGUUGUGGUAUAUUACUUGGUA [G27C C66U]: the self-cleavage came to 0.162.

As for GUCCUCUUUCACGUGCGCGUGAAAGAGAGAAGUGAACUAGAGAAACACACGUUGCGGUAUAUUACCUGGUA [C38U U55C], the self-cleavage is 0.231.

With GUCCUCUUUCUCGUGCGCGUGAAAGACAGAAGUGAACCAGAGAAACACACGUUGUGGUAUAUUACCUGGUA [A11U G27C], the self-cleavage was found to be 0.184.

Turning to GUCCUAUUUCACGUGCGCGUGAAAGAGAGAAGUGAACCAGAGAAACGCACGUUGUGGUAUAUUACCUGGUA [C6A A47G], the self-cleavage amounted to 0.157.

On to GUCCUCUUUCACGAGCGCGUGAAAGAGGGAAGUGAACCAGAGAAACACACGUUGUGGUAUAUUACCUGGUA [U14A A28G], for which the self-cleavage worked out at 1.2.

Regarding GUCCUCUUUCACGUGCGCGUGAAAGAGAGCAGUGAACGAGAGAAACACACGUUGUGGUAUAUUACCUGGUA [A30C C38G], the self-cleavage was found to be 0.0718.

With GUCCUCUUUGACGUGCGUGUGAAAGAGAGAAGUGAACCAGAGAAACACACGUUGUGGUAUAUUACCUGGUA [C10G C18U], the self-cleavage is 0.842.

Consider GUCCUUUUUCACGUGCGCGUGACAGAGAGAAGUGAACCAGAGAAACACACGUUGUGGUAUAUUACCUGGUA [C6U A23C], for which the self-cleavage came to 0.608.

Consider GUCCUCUUUCACGUGCGCGUGAAAGGGAGAAGUGAACCAGAGAAAAACACGUUGUGGUAUAUUACCUGGUA [A26G C46A], for which the self-cleavage came out at 0.0799.

In the case of GUCCUCUUUCACGUGCGCGUGAAAGAGAGAAGUGAACCAGUGAAACACAUGUUGUGGUAUAUUACCUGGUA [A41U C50U], the self-cleavage was found to be 0.781.

For GUCCUCUUUCACGUGUGCGUGAAAGAGAGAAGUGAACCAGAGACACACACGUUGUGGUAUAUUACCUGGUA [C16U A44C], the self-cleavage amounted to 0.0379.

Turning to GUCCUCUUUCACGUGCGCGUGAAAGAGAGAAGUGAUCCAGAGAAACACACGUAGUGGUAUAUUACCUGGUA [A36U U53A], the self-cleavage was 0.464.

For the variant GUCCUCUUUCACGUGCGCGUGAAGGAGAGAAGUGAACCAGAGAAACACGCGUUGUGGUAUAUUACCUGGUA [A24G A49G], the self-cleavage was found to be 0.352.

On to GUCCUAUUUCACGUGCGCGUGCAAGAGAGAAGUGAACCAGAGAAACACACGUUGUGGUAUAUUACCUGGUA [C6A A22C], for which the self-cleavage worked out at 0.541.

GUUCUCUUUCACGUGCGCGUGAAAGAGAGAAGUGAACCAGAGAAUCACACGUUGUGGUAUAUUACCUGGUA [C3U A45U]: the self-cleavage stood at 0.159.

For the variant GUCCUCUUUCACGUGCGCGUGAAAGAGAGAAGUGAACCAGAGAAACAUACGUUGUGGUAUAGUACCUGGUA [C48U U62G], the self-cleavage was determined as 0.108.

Consider GUCCUCUUUCACGUGCGCGGGAAAGAGAGAAGUGAACCAGAGAAACACACGUUGUGGUAUAUUUCCUGGUA [U20G A64U], for which the self-cleavage was 0.141.

Consider AUCCUCUUUCACGUGCGCGUGAAAGAGAGAAGUGAACCAGAGAAACACACGUUGUGGUAUAUUGCCUGGUA [G1A A64G], for which the self-cleavage was 0.187.

For GUCCUCUUUCACGUGCGCGUGAAAGAGCGAAGUGAACCAGAGAAACACACGUUGUGCUAUAUUACCUGGUA [A28C G57C], the self-cleavage stood at 0.145.

Take GUCCUCUUUCAAGUGCGCGUGAAAGAGAGAAGUGAACAAGAGAAACACACGUUGUGGUAUAUUACCUGGUA [C12A C38A]: the self-cleavage turned out to be 0.18.

Consider GUCCUCUUUCACGUGCGUGUGAAAGAUAGAAGUGAACCAGAGAAACACACGUUGUGGUAUAUUACCUGGUA [C18U G27U], for which the self-cleavage amounted to 0.303.

In the case of GUCCUCUUUCACGUGCGCGUGAAAGAGAGAAGUGAACCAGAGAAACACACGGUGUGGUAUAUGACCUGGUA [U52G U63G], the self-cleavage was 0.134.

As for GUCCUCUUUCACGUGCGCGUGAAAGAGAGAAGUGAACCACAGAAACACACGGUGUGGUAUAUUACCUGGUA [G40C U52G], the self-cleavage was 0.064.

For UUCCUCUUUCACGUGCGCGUGAAAGAGAGAAGUGAACCAGAGAAACACACGUUGUGGUAUAUUACCUGUUA [G1U G69U], the self-cleavage was found to be 0.101.

Take GUCCUCUUUCACGUGCGCGUGAAAGAGAGAAGAGAACCAGAGAAACACACGUUGGGGUAUAUUACCUGGUA [U33A U55G]: the self-cleavage is 0.0798.

For the variant GUCCUCUUUCACGUGCGCGUAAAAGAGAGAAGUGAACCAGAGAAACACACGUUGUGGUAUAUUACCUCGUA [G21A G68C], the self-cleavage stood at 0.15.

On to GUCCUCUUUCACGUGCGCGUGAAAGAGAGAUGUGAACCAGAGAAACACACGUUGUGGUAUAUUACCAGGUA [A31U U67A], for which the self-cleavage amounted to 0.1.

GUCCUCUUUCACGUGCGGGUGAAAGAGAGAAGUGAACCAGAGAAACACACGGUGUGGUAUAUUACCUGGUA [C18G U52G]: the self-cleavage is 0.538.

Take GUCCUCUUUCACGUGCGCGUGAAAGAGAGCAGUGAACCAGAGAAACACACGUUGUGGUAUAUUACCUAGUA [A30C G68A]: the self-cleavage was 0.0646.

Regarding GUCCUCUAUCACGUGCGCGUGAAAGAGAGAAGUGAACCAGAGAAACACACGUUGUGGUAUAUAACCUGGUA [U8A U63A], the self-cleavage amounted to 0.111.

As for GUCCUCUUUCAGGUGCGCGUGAAAGAGAGAAGUGAACCAGAGGAACACACGUUGUGGUAUAUUACCUGGUA [C12G A43G], the self-cleavage is 0.139.

For the variant AUCCUCUUUCACGUGCGCGUGUAAGAGAGAAGUGAACCAGAGAAACACACGUUGUGGUAUAUUACCUGGUA [G1A A22U], the self-cleavage was 0.109.
